T1: amphyphisin SH3 (AMPH_HUMAN), P49418
T1 chain: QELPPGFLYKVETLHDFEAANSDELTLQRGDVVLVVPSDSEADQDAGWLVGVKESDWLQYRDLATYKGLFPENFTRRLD

B1: Q01459 44-57 (peptide)
chain: PEPELSRPIRHHPD
B2: Q9H7P7 809-822 (peptide)
chain: PASAFDRPARTRGQ
B3: Q9UPV8 1233-1246 (peptide)
chain: PATAPARPLRLPSG
B4: Q9UGX2 21-34 (peptide)
chain: PESEIERPERLTAA
B5: Q9H5N7 170-183 (peptide)
chain: AARGLRRPEDSSRK
B6: Q9ULT2 697-711 (peptide)
chain: PAVPPARPPTAQEV
B7: Q14289 406-419 (peptide)
chain: PDETLRRPGGPQYG
B8: P13862 172-185 (peptide)
chain: PEYRPKRPANQFVP
B9: Q16623 232-245 (peptide)
chain: PSLTPRRPSSTRAR
B10: Q9C0C1 1172-1185 (peptide)
chain: PDVWLRRPSTHTSG
B11: O14939 368-381 (peptide)
chain: PEVYLKRPAHSDDW
B12: Q8WZ58 338-351 (peptide)
chain: PAPRLRRPGRVRPH
B13: Q13480 337-351 (peptide)
chain: PDIPPPRPPKPHPA
B14: Q9Y215 243-257 (peptide)
chain: PSTLPRRPPVPSGQ
B15: Q14184 101-115 (peptide)
chain: PARPPAKPPEDEPD
B16: Q13393 385-398 (peptide)
chain: PEIFLKRPVVEGNR
B17: Q9BR43 91-104 (peptide)
chain: PSYHILRPSRNQDL
B18: O00456 575-588 (peptide)
chain: PAQLPRRPAQRPGE
B19: Q9UKQ9 224-237 (peptide)
chain: PSSRPRRPAVYTSV
B20: Q92542 409-422 (peptide)
chain: PAVILRRPNQSQPL
B21: Q9UIC6 53-66 (peptide)
chain: ARRLLVRPARLRRH
B22: Q9UGB8 1078-1091 (peptide)
chain: PDPGFLRPQRAALY
B23: P55060 21-34 (peptide)
chain: PDPAIRRPAEKFLE
B24: P01031 668-681 (peptide)
chain: PSKEILRPRRTLQK
B25: Q99941 295-308 (peptide)
chain: PAPSLPRPERKSIV
B26: Q9BYN7 703-717 (peptide)
chain: PEAVPGKPPFAEPD
B27: Q9NQ45 25-38 (peptide)
chain: PASALPRPPRLSGS
B28: Q9P2D1 825-838 (peptide)
chain: PSAKPRRPQDKSQG
B29: Q9Y358 352-365 (peptide)
chain: ARPELRRPGVQGIP
B30: Q9NPU4 88-101 (peptide)
chain: PEVGPWRPKRLSGV
B31: Q13078 876-889 (peptide)
chain: PSPAPPRPARVPAH
B32: Q16378 41-55 (peptide)
chain: PDQGPQRPPPEGLL
B33: Q9NUE8 153-166 (peptide)
chain: PEDAPKRPKEAAPD
B34: Q9BXY2 295-308 (peptide)
chain: PERLLLRPARIRAD
B35: Q9UQ51 6-19 (peptide)
chain: PAVPPGRPRRGSLP
B36: Q9P281 735-748 (peptide)
chain: ARRGPGRPRKRKHS
B37: O60610 754-767 (peptide)
chain: PEVQLRRPNWSKLV
B38: P51511 326-340 (peptide)
chain: PDHRPPRPPQPPPP

The results in this text go back to publication PMC314469, “Protein Interaction Networks by Proteome Peptide Scanning” (PLoS Biology, 2004).

For one assay, the target named is T1, amphyphisin SH3 (AMPH_HUMAN), P49418. Put plainly: SPOT array.
The molecule B1 returned a normalised SPOT signal, Boehringer light units (BLU); mean over the file's lines of this peptide of 98.6.

The molecule B2 displayed a normalised SPOT signal, Boehringer light units (BLU); mean over the file's lines of this peptide of 2010.

In the case of B3, the normalised SPOT signal, Boehringer light units (BLU); mean over the file's lines of this peptide worked out at 11300.

Turning to B4, the normalised SPOT signal, Boehringer light units (BLU); mean over the file's lines of this peptide came out at 124.

The molecule B5 yielded a normalised SPOT signal, Boehringer light units (BLU); mean over the file's lines of this peptide of 18.

The molecule B6 returned a normalised SPOT signal, Boehringer light units (BLU); mean over the file's lines of this peptide of 92.

B7 had a normalised SPOT signal, Boehringer light units (BLU); mean over the file's lines of this peptide of 24.5.

As to B8, the normalised SPOT signal, Boehringer light units (BLU); mean over the file's lines of this peptide came to 24.8.

As to B9, the normalised SPOT signal, Boehringer light units (BLU); mean over the file's lines of this peptide was found to be 869.

Consider B10, for which the normalised SPOT signal, Boehringer light units (BLU); mean over the file's lines of this peptide came to 60.1.

The molecule B11 displayed a normalised SPOT signal, Boehringer light units (BLU); mean over the file's lines of this peptide of 33.

Take B12: the normalised SPOT signal, Boehringer light units (BLU); mean over the file's lines of this peptide was 71.5.

As for B13, the normalised SPOT signal, Boehringer light units (BLU); mean over the file's lines of this peptide came out at 635.

Take B14: the normalised SPOT signal, Boehringer light units (BLU); mean over the file's lines of this peptide was 309.

Take B15: the normalised SPOT signal, Boehringer light units (BLU); mean over the file's lines of this peptide came to 56.7.

For the molecule B16, the normalised SPOT signal, Boehringer light units (BLU); mean over the file's lines of this peptide worked out at 32.1.

B17: the normalised SPOT signal, Boehringer light units (BLU); mean over the file's lines of this peptide was determined as 412.

The molecule B18 had a normalised SPOT signal, Boehringer light units (BLU); mean over the file's lines of this peptide of 29.4.

Consider B19, for which the normalised SPOT signal, Boehringer light units (BLU); mean over the file's lines of this peptide turned out to be 39.7.

The molecule B20 gave a normalised SPOT signal, Boehringer light units (BLU); mean over the file's lines of this peptide of 16.5.

Consider B21, for which the normalised SPOT signal, Boehringer light units (BLU); mean over the file's lines of this peptide is 1340.

Molecule B22 yielded a normalised SPOT signal, Boehringer light units (BLU); mean over the file's lines of this peptide of 986.

B23 registered a normalised SPOT signal, Boehringer light units (BLU); mean over the file's lines of this peptide of 35.9.

With B24, the normalised SPOT signal, Boehringer light units (BLU); mean over the file's lines of this peptide was found to be 1040.

B25 displayed a normalised SPOT signal, Boehringer light units (BLU); mean over the file's lines of this peptide of 152.

Take B26: the normalised SPOT signal, Boehringer light units (BLU); mean over the file's lines of this peptide stood at 71.4.

For B27, the normalised SPOT signal, Boehringer light units (BLU); mean over the file's lines of this peptide came to 4470.

Take B28: the normalised SPOT signal, Boehringer light units (BLU); mean over the file's lines of this peptide worked out at 38.3.

On to B29, for which the normalised SPOT signal, Boehringer light units (BLU); mean over the file's lines of this peptide worked out at 25.7.

B30: the normalised SPOT signal, Boehringer light units (BLU); mean over the file's lines of this peptide was 4730.

Regarding B31, the normalised SPOT signal, Boehringer light units (BLU); mean over the file's lines of this peptide worked out at 2020.

Regarding B32, the normalised SPOT signal, Boehringer light units (BLU); mean over the file's lines of this peptide is 24.4.

As for B33, the normalised SPOT signal, Boehringer light units (BLU); mean over the file's lines of this peptide worked out at 19.3.

Molecule B34 gave a normalised SPOT signal, Boehringer light units (BLU); mean over the file's lines of this peptide of 1020.

In turn, B35 registered a normalised SPOT signal, Boehringer light units (BLU); mean over the file's lines of this peptide of 2070.

B36 came in with a normalised SPOT signal, Boehringer light units (BLU); mean over the file's lines of this peptide of 121.

Molecule B37 showed a normalised SPOT signal, Boehringer light units (BLU); mean over the file's lines of this peptide of 35.6.

For B38, the normalised SPOT signal, Boehringer light units (BLU); mean over the file's lines of this peptide worked out at 548.

The target of a further assay is endophilin SH3 (SH3G2_HUMAN), Q99962. In words: SPOT array.
B1 displayed a normalised SPOT signal, Boehringer light units (BLU); mean over the file's lines of this peptide of 116.

As for B2, the normalised SPOT signal, Boehringer light units (BLU); mean over the file's lines of this peptide was found to be 98.4.

B3 came in with a normalised SPOT signal, Boehringer light units (BLU); mean over the file's lines of this peptide of 7710.

Turning to B4, the normalised SPOT signal, Boehringer light units (BLU); mean over the file's lines of this peptide was determined as 281.

B5 registered a normalised SPOT signal, Boehringer light units (BLU); mean over the file's lines of this peptide of 3.6.

B6: the normalised SPOT signal, Boehringer light units (BLU); mean over the file's lines of this peptide was 509.

B7: the normalised SPOT signal, Boehringer light units (BLU); mean over the file's lines of this peptide was determined as 12.2.

B8: the normalised SPOT signal, Boehringer light units (BLU); mean over the file's lines of this peptide is 238.

B9: the normalised SPOT signal, Boehringer light units (BLU); mean over the file's lines of this peptide stood at 1390.

B10: the normalised SPOT signal, Boehringer light units (BLU); mean over the file's lines of this peptide came out at 242.

On to B11, for which the normalised SPOT signal, Boehringer light units (BLU); mean over the file's lines of this peptide came out at 28.5.

In the case of B12, the normalised SPOT signal, Boehringer light units (BLU); mean over the file's lines of this peptide stood at 71.1.

For B13, the normalised SPOT signal, Boehringer light units (BLU); mean over the file's lines of this peptide worked out at 6240.

Take B14: the normalised SPOT signal, Boehringer light units (BLU); mean over the file's lines of this peptide is 2140.

In turn, B15 yielded a normalised SPOT signal, Boehringer light units (BLU); mean over the file's lines of this peptide of 45.8.

On to B16, for which the normalised SPOT signal, Boehringer light units (BLU); mean over the file's lines of this peptide turned out to be 95.5.

For the molecule B17, the normalised SPOT signal, Boehringer light units (BLU); mean over the file's lines of this peptide was 426.

Turning to B18, the normalised SPOT signal, Boehringer light units (BLU); mean over the file's lines of this peptide worked out at 28.3.

In turn, B19 showed a normalised SPOT signal, Boehringer light units (BLU); mean over the file's lines of this peptide of 260.

With B20, the normalised SPOT signal, Boehringer light units (BLU); mean over the file's lines of this peptide was determined as 108.

Turning to B21, the normalised SPOT signal, Boehringer light units (BLU); mean over the file's lines of this peptide turned out to be 67.4.

Regarding B22, the normalised SPOT signal, Boehringer light units (BLU); mean over the file's lines of this peptide is 310.

B23 registered a normalised SPOT signal, Boehringer light units (BLU); mean over the file's lines of this peptide of 52.2.

With B24, the normalised SPOT signal, Boehringer light units (BLU); mean over the file's lines of this peptide stood at 181.

Molecule B25 gave a normalised SPOT signal, Boehringer light units (BLU); mean over the file's lines of this peptide of 143.

As to B26, the normalised SPOT signal, Boehringer light units (BLU); mean over the file's lines of this peptide was determined as 63.8.

For B27, the normalised SPOT signal, Boehringer light units (BLU); mean over the file's lines of this peptide came out at 92.9.

Take B28: the normalised SPOT signal, Boehringer light units (BLU); mean over the file's lines of this peptide is 78.4.

Consider B29, for which the normalised SPOT signal, Boehringer light units (BLU); mean over the file's lines of this peptide amounted to 73.8.

B30: the normalised SPOT signal, Boehringer light units (BLU); mean over the file's lines of this peptide worked out at 2400.

B31 had a normalised SPOT signal, Boehringer light units (BLU); mean over the file's lines of this peptide of 3100.

Turning to B32, the normalised SPOT signal, Boehringer light units (BLU); mean over the file's lines of this peptide came out at 62.3.

In the case of B33, the normalised SPOT signal, Boehringer light units (BLU); mean over the file's lines of this peptide amounted to 23.2.

Molecule B34 gave a normalised SPOT signal, Boehringer light units (BLU); mean over the file's lines of this peptide of 106.

B35: the normalised SPOT signal, Boehringer light units (BLU); mean over the file's lines of this peptide is 7480.

For B36, the normalised SPOT signal, Boehringer light units (BLU); mean over the file's lines of this peptide amounted to 231.

In the case of B37, the normalised SPOT signal, Boehringer light units (BLU); mean over the file's lines of this peptide stood at 152.

In turn, B38 yielded a normalised SPOT signal, Boehringer light units (BLU); mean over the file's lines of this peptide of 1370.
